The results in this text go back to patent US9745357B2, “Peptides used for treating cancers and, in particular, chronic lymphoid leukaemia” (Centre National de la Recherche Scientifique, priority 2009, dated 2017).

Entries after “also recorded” stand apart in the source; their conditions may differ. No end group written: not given here.

The target in the experiment is T1, eIF4E (Mus musculus, UniProt P63073).
T1 construct: made in house; host or cells: E. coli BL21DE3 (Novagen), pGEX-4T-1 vector
T1 sequence (P63073 whole entry): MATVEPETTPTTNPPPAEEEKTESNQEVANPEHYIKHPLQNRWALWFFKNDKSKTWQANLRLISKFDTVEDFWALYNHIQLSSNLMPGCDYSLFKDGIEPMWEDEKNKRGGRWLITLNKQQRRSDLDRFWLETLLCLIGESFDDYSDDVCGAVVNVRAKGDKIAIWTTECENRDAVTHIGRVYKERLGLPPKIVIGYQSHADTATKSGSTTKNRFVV
Description: Test for interaction of YFP-fused peptide sequences with eIF4E (GST-eIF4E beads, affinity chromatography). The experiment is classed as binding. The following applies: 35S Met-labeled YFP fusion produced in rabbit reticulocyte lysate; SDS-PAGE, autoradiography; FIG. 1. An excerpt:
The eIF4E protein fused to glutathione-S-transferase (GST-eIF4E) or GST alone (GST), used as a control, are produced in bacteria, purified and immobilized on glutathione beads. The YFP, YFP-A1 WT and YFP-A1 YALA proteins were produced in rabbit reticulocyte lysate in the presence of 35S methionine and chromatographed on the GST-eIF4 or GST beads. The proteins retained on the beads are eluted and analyzed by SDS-PAGE followed by autoradiography.
The plasmids encoding the YFP protein-peptides were obtained by amplification of the reading frame of the YFP protein (enhanced yellow-green variant of the Aequorea victoria green fluorescent protein) from the pEYFP-C1 plasmid (Clontech). The 5′ primer used (sequence described below) made it possible to insert a T7 promoter (underlined sequence) upstream of the reading frame of YFP. […] The pGEX 4E plasmid was obtained by inserting the reading frame of the mouse eIF4E protein at the BamHI/EcoRI sites of the PGEX-4T-1 vector (Amersham pharmacia biotech). […] After washing, the proteins were eluted with SDS loading buffer, and analyzed, after an SDS-PAGE gel, by autoradiography (Typhoon Phospholmager, Amersham Pharmacia Biotech).
Biochemical validation of the peptides identified was then carried out by means of affinity chromatography approaches. […] The ability of these peptides to interact with eIF4E was then analyzed by affinity chromatography. […]

Take “YFP-A1 WT: YFP, yellow fluorescent protein, fused to a peptide derived from the human Angel 1 protein, of sequence RRKYGRDFLLRF (SEQ ID No. 3) (also: fused to YFP)”: the “interaction with eIF4E (retention on GST-eIF4E beads)” value is listed as “associates more strongly with eIF4E than the other peptides tested; also recorded: is retained on GST-eIF4E beads”.
